Laboratory results from article PMC4465127 (2015).

Molecular target: T1, LIN-3 EGF domain EGF (Caenorhabditis elegans, UniProt Q03345)
T1 chain: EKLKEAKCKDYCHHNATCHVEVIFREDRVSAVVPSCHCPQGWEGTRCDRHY

B1: sLET-23 ECD (protein)
chain: FGNSNAQLWKRCVSPQDCLCSGTTNGISRYGTGNILEDLETMYRGCRRVYGNLEITWIEANEIKKWRESTNSTVDPKNEDSPLKSINFFDNLEEIRGSLIIYRANIQKISFPRLRVIYGDEVFHDNALYIHKNDKVHEVVMRELRVIRNGSVTIQDNPKMCYIGDKIDWKELLYDPDVQKVETTNSHQHCYQNGKSMAKCHESCNDKCWGSGDNDCQRVYRSVCPKSCSQCFYSNSTSSYECCDSACLGGCTGHGPKNCIACSKYELDGICIETCPSRKIFNHKTGRLVFNPDGRYQNGNHCVKECPPELLIENDVCVRHCSDGHHYDATKDVRECEKCRSSSCPKICTVDGHLTNETLKNLEGCEQIDGHLIIEHAFTYEQLKVLETVKIVSEYITIVQQNFYDLKFLKNLQIIEGRKLHNVRWALAIYQCDDLEELSLNSLKLIKTGAVLIMKNHRLCYVSKIDWSSIITSKGKDNKPSLAIAENRDSKLCETEQRVCDKNCNKRGCWGKEPEDCLECKTWKSVGTCVEKCDTKGFLRNQTSMKCERCSPECETCNGLGELDCLTCRHKTLYNSDFGNRMECVHDCPVSHFPTQKNVCEKCHPTCYDNGCTGPDSNLGYGGCKQCKYAVKYENDTIFCLQSSGMNNVCVENDLPNYYISTYDTEGVIETHCEKCSISCKTCSSAGRNVVQNKCVCKHVEYQPNPSERICMDQCPVNSFMVPDTNNTVCKKCHHECDQNYHCANGQSTGCQKCKNFTVFKGDIAQCVSECPKNLPFSNPANGECLDYDIASRQRKTR
Q: How did the Kd turn out when B1 was run?
A: ~3000 nM
